This data set deals with ICP8 (Infected Cell Polypeptide 8, HSV-1 SSB) (herpes simplex virus-1, UniProt P04296 1-1196). Description: thermal shift assay.
Sequence of ICP8 (Infected Cell Polypeptide 8, HSV-1 SSB) (P04296 whole entry): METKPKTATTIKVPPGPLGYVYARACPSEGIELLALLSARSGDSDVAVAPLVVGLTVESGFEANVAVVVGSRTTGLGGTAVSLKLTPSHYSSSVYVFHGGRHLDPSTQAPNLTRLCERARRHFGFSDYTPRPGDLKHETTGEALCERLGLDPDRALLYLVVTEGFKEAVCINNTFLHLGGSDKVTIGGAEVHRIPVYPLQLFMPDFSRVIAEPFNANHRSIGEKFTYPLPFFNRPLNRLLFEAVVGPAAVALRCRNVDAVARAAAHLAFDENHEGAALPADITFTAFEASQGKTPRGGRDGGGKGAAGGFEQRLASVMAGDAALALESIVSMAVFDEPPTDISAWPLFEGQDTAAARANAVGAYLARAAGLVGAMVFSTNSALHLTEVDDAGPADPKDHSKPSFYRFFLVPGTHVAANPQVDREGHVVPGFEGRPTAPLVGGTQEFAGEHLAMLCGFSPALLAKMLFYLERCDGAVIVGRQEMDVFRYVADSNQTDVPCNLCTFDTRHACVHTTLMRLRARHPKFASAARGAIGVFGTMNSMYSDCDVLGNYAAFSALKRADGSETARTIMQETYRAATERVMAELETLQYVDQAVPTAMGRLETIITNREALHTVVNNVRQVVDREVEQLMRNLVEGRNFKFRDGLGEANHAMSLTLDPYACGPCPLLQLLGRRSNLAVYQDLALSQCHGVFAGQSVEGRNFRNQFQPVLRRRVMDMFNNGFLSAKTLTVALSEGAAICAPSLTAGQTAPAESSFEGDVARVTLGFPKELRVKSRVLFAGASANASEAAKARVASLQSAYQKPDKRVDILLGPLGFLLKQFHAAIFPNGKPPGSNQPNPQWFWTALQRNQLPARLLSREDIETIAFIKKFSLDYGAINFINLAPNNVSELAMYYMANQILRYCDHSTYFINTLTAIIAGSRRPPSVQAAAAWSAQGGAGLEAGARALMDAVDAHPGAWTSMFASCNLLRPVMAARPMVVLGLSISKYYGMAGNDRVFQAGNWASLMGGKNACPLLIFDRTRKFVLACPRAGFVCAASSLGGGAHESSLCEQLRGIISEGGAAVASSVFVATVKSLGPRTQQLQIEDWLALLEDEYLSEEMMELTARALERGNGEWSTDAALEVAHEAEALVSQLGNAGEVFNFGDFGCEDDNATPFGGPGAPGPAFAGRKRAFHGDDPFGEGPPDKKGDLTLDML

B1: (dT)20 (ssDNA)
DNA: TTTTTTTTTTTTTTTTTTTT
With B1, the Kd is less than 1000 nM.

A word on the Kd: it is the concentration at which binding is half-saturated.

The values above are taken from article PMC4254511.
